In paper PMC10763354 one finds fold reduction of the binding affinity by typhaneoside (against DVF-LRRC19 without it) and Kd data, which are given here for one substance.

Test [1] has as its target leucine-rich repeat containing 19 (LRRC19) protein (UniProt Q9H756). Description: MST; Monolith NT.115; NT647-labelled LRRC19 and DVF in the presence of typhaneoside; MST buffer (50 mM Tris-HCl pH 7.4, 150 mM NaCl, 10 mM MgCl2).
Test [2] shares this target. Description: SPR; BIACORE 3000, 25 °C; LRRC19 immobilised on a CM5 chip (EDC/NHS); DVF in Tris buffered saline injected at 30 μL/min, at least 5 concentrations, 180 s binding, 300 s dissociation. (SPR reads the build-up and loss of mass on a sensor chip optically.)

By Kd is commonly meant the constant that tells how readily two partners part at equilibrium. High values mean lower affinity, low ones higher affinity.

Sequence of leucine-rich repeat containing 19 (LRRC19) protein (Q9H756 25-270): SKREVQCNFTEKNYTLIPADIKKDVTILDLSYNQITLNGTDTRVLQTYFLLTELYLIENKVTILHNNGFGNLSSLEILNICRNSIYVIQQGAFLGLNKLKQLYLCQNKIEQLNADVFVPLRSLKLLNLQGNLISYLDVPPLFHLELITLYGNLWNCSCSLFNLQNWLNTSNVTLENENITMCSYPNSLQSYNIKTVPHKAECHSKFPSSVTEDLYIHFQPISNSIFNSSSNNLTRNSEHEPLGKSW

Take “Desulfovibrio vulgaris flagellin (natural protein)”: the fold reduction of the binding affinity by typhaneoside (against DVF-LRRC19 without it) in test [1] came to 400 fold. The same substance returned a Kd in test [2] of 35 µM.
